Data reported in article PMC13323110, “Structure and substrate recognition by the bacterial twin-arginine translocation (Tat) core complex” (Nature Microbiology, 2026).
Values belong to the molecule of their own block, whether it stands above or below them.

Key:
[1] = target: N. salsuginis TatC (GFP-His removed) (Nitratifractor salsuginis); test: cryo-EM structure; co-expressed TatBC complexes (E. coli, N. salsuginis, M. xanthus) and N. salsuginis TatAC complex, solubilised and purified in GDN
[2] = target: the molecule itself; test: as above
[3] = target: T1, E. coli TatBC complex purified by a Twin-Strep tag on TatC (sample of the TatBC-MdoD structure) (Escherichia coli, UniProt P69425 1-171; P69423 1-258); test: cryo-EM structure; complex assembled in vitro: Ulp1-cut His6-SUMO-MdoD or -CueO mixed with purified E. coli TatBC or TatABC complex overnight at 4 °C, SEC in 50 mM Tris pH 8.0, 200 mM NaCl, 1 mM EDTA, 0.02% GDN; excess substrate; settings: both partners purified
T1 construct: TatB of Escherichia coli, as m1; TatC of Escherichia coli, as m5; No TatA density was found; source: E. coli, overexpressed TatABC purified solely by the TatC Twin-Strep tag in GDN; only very low levels of TatA in the purified material; copies: 3 + 3
T1 sequence 1: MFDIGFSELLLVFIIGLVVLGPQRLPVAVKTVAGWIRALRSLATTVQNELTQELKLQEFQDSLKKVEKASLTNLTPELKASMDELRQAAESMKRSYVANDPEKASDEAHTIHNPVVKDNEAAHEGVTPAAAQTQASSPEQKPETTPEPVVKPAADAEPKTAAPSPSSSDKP
T1 sequence 2: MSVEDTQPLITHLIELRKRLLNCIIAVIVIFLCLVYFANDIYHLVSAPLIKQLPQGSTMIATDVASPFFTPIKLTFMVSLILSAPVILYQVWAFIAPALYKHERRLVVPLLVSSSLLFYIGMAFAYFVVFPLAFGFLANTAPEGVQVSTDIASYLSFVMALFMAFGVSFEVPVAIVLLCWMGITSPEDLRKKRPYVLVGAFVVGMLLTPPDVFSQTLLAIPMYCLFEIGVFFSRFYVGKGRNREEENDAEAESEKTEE

[4] = target: the molecule itself; test: as above
[5] = target: T2, E. coli TatC of the His-tagged TatBC complex (TatBC_(His)6) (Escherichia coli), P69423; test: cryo-EM structure; co-expressed TatBC complexes (E. coli, N. salsuginis, M. xanthus) and N. salsuginis TatAC complex, solubilised and purified in GDN; settings: remark: other sources report otherwise
T2 chain: T1 sequence 2

[6] = target: the molecule itself; test: crystal structure; SeMet-labelled isolated periplasmic domain; sitting drop, 21 °C, 0.2 M lithium sulphate, 0.1 M Tris pH 8.5, 10% PEG 8000, 10% PEG 1000
[7] = target: T3, E. coli TatC with C-terminal Twin-Strep tag, expressed from a tatABC plasmid (Escherichia coli, UniProt P69423 1-258); test: cryo-EM structure; purified E. coli TatABC with an ALFA tag inserted in TatA or TatB, labelled with an anti-ALFA nanobody; 2D class averages and a 6.4 Å map; settings: both partners purified
T3 construct: TatC of Escherichia coli, PCR from E. coli genomic DNA (DSM 1116); also called TatC_(strep); not shown: Twin-Strep, C-terminal, kept
T3 sequence: T1 sequence 2

[8] = target: N. salsuginis TatBC complex (Nitratifractor salsuginis); test: cryo-EM structure; 50 μl N. salsuginis TatBC (A280nm = 8.0) mixed with 50 μl CueO peptide (1 mg/ml), 12 h at 4 °C, in GDN
[9] = target: T3, E. coli TatC with C-terminal Twin-Strep …; test: densitometry of Coomassie-stained SDS-PAGE of purified complexes; purified TatABC (TatA_26(His)6_TatBC) and TatBC (TatBC_(His)6) at four dilutions, bands quantified with ImageJ; settings: both partners purified

stoichiometry N [1]: 3
Molecule: N. salsuginis TatC (GFP-His removed) (natural protein)

stoichiometry N [5]: 3
B3: E. coli TatC of the His-tagged TatBC complex (TatBC_(His)6), P69423 1-258 (natural protein)
chain: T1 sequence 2

stoichiometry N [7]: 1 TatA per core complex
B5: E. coli TatA with an inserted ALFA-His tag (natural protein, Escherichia coli, UniProt P69428 1-89, looked up)
chain: MGGISIWQLLIIAVIVVLLFGTKKLGSIGSDLGASIKGFKKAMSDDEPKQDKTSQDADFTAKTIADKQADTNQEQAKTEDAKRHDKEQV
notes: TatA of Escherichia coli; also called TatA_(ALFA); TatA_(ALFA,His); not shown: ALFA, internal (in the cytoplasmic part of TatA), kept

stoichiometry N (signal peptide per TatB and TatC) [8]: 1
Molecule: MQRRDFLKYSVALGVASALPLWSRAVFA [E. coli CueO signal peptide (residues 1-28)]

stoichiometry N [7]: 2 TatB per core complex
B7: E. coli TatB with an inserted ALFA-His tag (natural protein, Escherichia coli, UniProt P69425 1-171, looked up)
chain: T1 sequence 1
notes: TatB of Escherichia coli; also called TatB_(ALFA)

Further lines, the molecule ahead of its results:

B1: M. xanthus TatC (GFP-His removed) (natural protein, Myxococcus xanthus)
chain: MSLADHLTELRSRLMRCTIAVLILGTISLVFAKPIFGLLMQPVLDALPPENRSLIYTSGIEELNVLMKVGVYCGIFLTTPVILMQIWGFVSPGLYPEERRFAAPFVAFGSIAFLLGAAFCYFAVLPSMFTFLLNEEETLALEQRLDTARLRADDALRFLRLGEAEEAGRIAKETSTQLRAEGQGQAPAPEVAPAASVEMTGRLDGLGRLLDAASVGYGAQSRGVLRQAVEKRVEAVTAYEKKDFAAAAAAMDGSASLLAGIAPTRTEELAGLWRLEKELATAHAAHEAARWTRPMLSMHEQLSLVLLLILAFGIIFELPLVMALLGVVGVVKSSWLFRYQRHAFVVCLIAAAIITPTGDVVNLSLMAGPMLLCYELGVLLVWMVERRRARNSAETGITPAS
notes: TatC of Myxococcus xanthus (ATCC 19368), codon-optimised synthetic gene; has a folded periplasmic insert domain
stoichiometry N [2]: 3

B2: E. coli MdoD, full length with its Tat signal peptide (natural protein, Escherichia coli, UniProt P40120 1-551, looked up)
chain: MDRRRFIKGSMAMAAVCGTSGIASLFSQAAFAADSDIADGQTQRFDFSILQSMAHDLAQTAWRGAPRPLPDTLATMTPQAYNSIQYDAEKSLWHNVENRQLDAQFFHMGMGFRRRVRMFSVDPATHLAREIHFRPELFKYNDAGVDTKQLEGQSDLGFAGFRVFKAPELARRDVVSFLGASYFRAVDDTYQYGLSARGLAIDTYTDSKEEFPDFTAFWFDTVKPGATTFTVYALLDSASITGAYKFTIHCEKSQVIMDVENHLYARKDIKQLGIAPMTSMFSCGTNERRMCDTIHPQIHDSDRLSMWRGNGEWICRPLNNPQKLQFNAYTDNNPKGFGLLQLDRDFSHYQDIMGWYNKRPSLWVEPRNKWGKGTIGLMEIPTTGETLDNIVCFWQPEKAVKAGDEFAFQYRLYWSAQPPVHCPLARVMATRTGMGGFSEGWAPGEHYPEKWARRFAVDFVGGDLKAAAPKGIEPVITLSSGEAKQIEILYIEPIDGYRIQFDWYPTSDSTDPVDMRMYLRCQGDAISETWLYQYFPPAPDKRQYVDDRVMS
notes: MdoD of Escherichia coli, precursor with its 32-residue Tat signal peptide; source: E. coli BL21 (DE3) ΔtatABCD ΔtatE, pET28a with N-terminal His6-SUMO, purified (His tag column), cut with Ulp1; not shown: His6, N-terminal, cleaved; SUMO, N-terminal, cleaved
stoichiometry N [3]: 3 MdoD per (TatBC)3 complex | stoichiometry N [4]: 2

B4: M. xanthus TatC periplasmic domain (residues 127-303) (domain or fragment, Myxococcus xanthus, UniProt Q2PHA2 127-303, looked up)
chain: SMFTFLLNEEETLALEQRLDTARLRADDALRFLRLGEAEEAGRIAKETSTQLRAEGQGQAPAPEVAPAASVEMTGRLDGLGRLLDAASVGYGAQSRGVLRQAVEKRVEAVTAYEKKDFAAAAAAMDGSASLLAGIAPTRTEELAGLWRLEKELATAHAAHEAARWTRPMLSMHEQLS
modifications: selenomethionine-labelled
notes: periplasmic domain of TatC of Myxococcus xanthus, residues 127-303; also called M. xanthus insert; source: E. coli B834 (DE3), pET15b, SelenoMethionine media, purified (Ni-NTA, TEV, SEC)
stoichiometry N [6]: 3

B6: E. coli TatB (natural protein, Escherichia coli)
chain: T1 sequence 1
notes: TatB of Escherichia coli, PCR from E. coli genomic DNA (DSM 1116); residues 1-63 modelled in the TatBC structure; source: E. coli MC4100 ΔtatABCD ΔtatE, overexpressed from a plasmid with TatC (and TatA), purified in GDN as part of the complex
binding result [2]: binds | ratio of TatB to TatC in the TatABC complex relative to the TatBC complex [9]: 0.78
